This is an account of results in patent US20260201034A1 (published 2026).

The test has as its target T1, HER2 Y772dupYVMA peptide on HLA-A*02:01 (human).
T1 peptide: VMAYVMAGV
As to the kind of experiment: multimer staining.

B1: HER2 (Y772dupYVMA)/HLA-A*02:01-specific TCR (TCR, V domains shown)
Valpha: AQTVTQSQPEMSVQEAETVTLSCTYDTSESDYYLFWYKQPPSRQMILVIRQEAYKQQNATENRFSVNFQKAAKSFSLKISDSQLGDAAMYFCAYWSVPGGSYIPTFGRGTSLIVHP
Vbeta: EAQVTQNPRYLITVTGKKLTVTCSQNMNHEYMSWYRQDPGLGLRQIYYSMNVEVTDKGDVPEGYKVSRKEKRNFPLILESPSPNQTSLYFCASSLRPGTSIPGELFFGEGSRLTVL
Regarding B1, the binding result is listed as “recognises”.
